This note sets out measurements from patent US20250263482A1.

The target of this experiment is human CLDN18.2 expressed on cells (human). The experiment can be described thus: cell-based or functional assay.

B1: reference mAb (IMAB362, Ganymed) (antibody, INN chains, looked up, V domains shown)
VH: QVQLQQPGAELVRPGASVKLSCKASGYTFTSYWINWVKQRPGQGLEWIGNIYPSDSYTNYNQKFKDKATLTVDKSSSTAYMQLSSPTSEDSAVYYCTRSWRGNSFDYWGQGTTLTVSS
VL: DIVMTQSPSSLTVTAGEKVTMSCKSSQSLLNSGNQKNYLTWYQQKPGQPPKLLIYWASTRESGVPDRFTGSGSGTDFTLTISSVQAEDLAVYYCQNDYSYPFTFGSGTKLEIKR
With B1, the ADCC on KATOIII CLDN18.2 cells, LDH: EC50 (nM), run A stood at 0.12 nM; the ADCC on KATOIII CLDN18.2 cells, LDH: EC50 (nM), run B was found to be 0.22 nM; the ADCC on KATOIII CLDN18.2 cells, LDH: EC50 (nM), run C was determined as 0.27 nM; the ADCC on KATOIII CLDN18.2 cells, LDH: max (% cytotoxity), run A came out at 27.9%. The molecule further showed an ADCC on KATOIII CLDN18.2 cells, LDH: max (% cytotoxity), run B of 24.5%; an ADCC on KATOIII CLDN18.2 cells, LDH: max (% cytotoxity), run C of 24.5%; an ADCC on NCI-N87 CLDN18.2 cells, LDH: EC50 (nM), run A of 0.057 nM; an ADCC on NCI-N87 CLDN18.2 cells, LDH: EC50 (nM), run B of 0.082 nM. For the same molecule, the ADCC on NCI-N87 CLDN18.2 cells, LDH: EC50 (nM), run C was 0.1 nM; the ADCC on NCI-N87 CLDN18.2 cells, LDH: max (% cytotoxity), run A was determined as 26.1%; the ADCC on NCI-N87 CLDN18.2 cells, LDH: max (% cytotoxity), run B was found to be 22.1%; the ADCC on NCI-N87 CLDN18.2 cells, LDH: max (% cytotoxity), run C amounted to 21.1%. Further, the CDC on CT26 CLDN18.2 cells, LDH: EC50 (nM), run A came to 11.5 nM; the CDC on CT26 CLDN18.2 cells, LDH: EC50 (nM), run B was 10.7 nM; the CDC on CT26 CLDN18.2 cells, LDH: EC50 (nM), run C was 11.9 nM; the CDC on CT26 CLDN18.2 cells, LDH: max (% cytotoxity), run A worked out at 72.5%. This molecule also returned a CDC on CT26 CLDN18.2 cells, LDH: max (% cytotoxity), run B of 54.7%; a CDC on CT26 CLDN18.2 cells, LDH: max (% cytotoxity), run C of 51.6%; a CDC on KATOIII CLDN18.2 cells, LDH: EC50 (nM), run A of 38.1 nM; a CDC on KATOIII CLDN18.2 cells, LDH: EC50 (nM), run B of 22.7 nM. The CDC on KATOIII CLDN18.2 cells, LDH: EC50 (nM), run C is 27.5 nM; the CDC on KATOIII CLDN18.2 cells, LDH: max (% cytotoxity), run A was found to be 29.7%; the CDC on KATOIII CLDN18.2 cells, LDH: max (% cytotoxity), run B was found to be 46%; the CDC on KATOIII CLDN18.2 cells, LDH: max (% cytotoxity), run C was found to be 34.9%.
